Measurements reported in patent US20110256132A1 (published 2011).
Read-outs that look alike come from different tables or passages of the source.

Assays:
[1] = biological target: T1, mature myostatin (recombinant, dimeric) (mouse polyprotein used for in-house …, UniProt O08689 268-376); assay: cell-based or functional assay
T1 sequence: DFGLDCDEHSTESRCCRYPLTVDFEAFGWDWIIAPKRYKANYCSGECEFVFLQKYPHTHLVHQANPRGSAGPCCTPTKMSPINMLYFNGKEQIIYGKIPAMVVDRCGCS

[2] = biological target: T1, mature myostatin (recombinant, dimeric); assay: cell-based or functional assay; remark: listed apart in the source
[3] = biological target: T1, mature myostatin (recombinant, dimeric); assay: cell-based or functional assay; remark: listed apart in the source
[4] = biological target: T1, mature myostatin (recombinant, dimeric); assay: BIAcore, low density myostatin surface, methods as in 4.3
[5] = biological target: T1, mature myostatin (recombinant, dimeric); assay: FORTEbio bio-layer interferometry, myostatin amine-coupled to sensor, 20 nM antibody, 1:1 fit
Experimental: The affinity of 10B3 mouse parental and H2L2-C91S developability variant for recombinant myostatin was also assessed by FORTEbio™ (bio-layer inferometry) analysis. FORTEbio™ analyses were carried out by antigen capture. Myostatin (in-house, see above at 1.1) was coupled onto amine reactive biosensors by primary amine coupling in accordance with the manufacturer's instructions. Antibodies were then captured onto this surface at 20 nM concentrations. The data was analysed using the evaluation software inherent in the machine and the data analysed using 1:1 fit (see Table 16). Due to the limited number of myostatin molecules bound to the sensor surface and the low antibody concentration, avidity effects are reduced, enabling a more accurate measure of affinity compared to the Biacore analyses. […] However, due to the nature of the binding of the antibodies to myostatin, these values are mainly used for ranking purposes, and the affinity may not be representative of the affinity in vivo.

[6] = biological target: T1, mature myostatin (recombinant, dimeric); assay: myostatin binding ELISA after 48 h at 37 C in 1% ammonium bicarbonate pH 9.0 (Examples 5.2, 4.2), A490
[7] = biological target: T1, mature myostatin (recombinant, dimeric); assay: ProteOn XPR36, antibody captured from supernatant, myostatin analyte
Experimental: The initial kinetic analyses for the CDRH3 screen were carried out on the ProteOn XPR36 (Biorad Laboratories). For residues R95 to P100_B, analysis was carried out using a Protein A/G capture surface (Pierce 21186) was used and for residues A100_C to V102, an anti-human IgG surface was used (Biacore/GE Healthcare BR-1008-39). Both capture surfaces were prepared similarly using primary amine coupling to immobilise the capture molecule on a GLM chip (Biorad Laboratories 176-5012). CDRH3 variants were captured directly on either the Protein A/G or anti-human IgG surface (depending on the residue mutated) from tissue culture supernatants from transient transfections expressing the particular variant of interest. After capture, in-house recombinant human myostatin (see 1.1 above) was used as an analyte at 256 nM, 32 nM, 4 nM, 0.5 nM and 0.0625 nM, with a buffer injection alone (i.e. 0 nM) used to double reference the binding curves. Following the myostatin binding event, the capture surfaces were regenerated: for the Protein A/G capture surface, 100 mM phosphoric acid was used to regenerate the capture surface; and for the anti-human IgG surface, 3M MgCl₂ was used to regenerate the capture surface; the regeneration removed the previously captured antibody ready for another cycle of capture and binding analysis. […]

[8] = biological target: T1, mature myostatin (recombinant, dimeric); assay: BIAcore, low density myostatin surface
[9] = biological target: T1, mature myostatin (recombinant, dimeric); assay: myostatin binding ELISA after 48 h at 37 C in PBS (Examples 5.2, 4.2), A490
[10] = biological target: T1, mature myostatin (recombinant, dimeric); assay: cell-based or functional assay; remark: listed apart in the source
[11] = biological target: T1, mature myostatin (recombinant, dimeric); assay: cell-based or functional assay; remark: listed apart in the source
[12] = biological target: T1, mature myostatin (recombinant, dimeric); assay: cell-based or functional assay; remark: listed apart in the source
[13] = biological target: T1, mature myostatin (recombinant, dimeric); assay: ELISA, plate-coated myostatin (R&D Systems), mean EC50
Experimental: 10B3 and 10B3 chimera (10B3C) bound myostatin (R&D Systems, 788-G8-010/CF) in a sandwich ELISA. Plates were coated with myostatin at 10 ng/well and blocked with Block solution (PBS, 0.1% TWEEN and 1% BSA). Following washing (PBS, 0.1% TWEEN), antibody was incubated at 37° C. for 2 hours over a dilution series and plates washed again prior to incubation at 37° C. for 1 hour with anti-mouse HRP or anti-human HRP (Dako, P0161 & Sigma, A-8400, respectively). Plates were again washed and OPD substrate (Sigma, P9187) added until colourometric reaction occurred and the reaction stopped by the addition of H₂SO₄.

[14] = biological target: T1, mature myostatin (recombinant, dimeric); assay: BIAcore, low density myostatin surface, antibody analyte, 1:1 model
Experimental: (§1) Purified H0L0, H1L2 and H2L2 bound recombinant myostatin by BIAcore™ Recombinant myostatin was immobilised at three different densities (low, medium and high, to give R-max values of approximately 35, 120 and 350 RU's respectively) onto a BIAcore™ chip. Antibodies were passed over at 256, 64, 16, 4 and 1 nM. 0 nM antibody was used for double referencing and data was fitted to the 1:1 model.

[15] = biological target: T1, mature myostatin (recombinant, dimeric); assay: BIAcore, high density myostatin surface, antibody analyte, 1:1 model (poor fits)
Experimental: as §1

[16] = biological target: T1, mature myostatin (recombinant, dimeric); assay: BIAcore, medium density myostatin surface, antibody analyte, 1:1 model (poor fits)
Experimental: as §1

[17] = biological target: T1, mature myostatin (recombinant, dimeric); assay: ELISA: inhibition of 2 nM biotinylated myostatin binding to plate-coated ActRIIb, mean IC50
Experimental: Recombinant soluble ActRIIb (R&D Systems 339-RBB) was coated in wells of an ELISA plate at 1 μg/ml in carbonate buffer overnight at 4° C. Plates were blocked (see Block solution above at 2.3) and washed following standard ELISA protocols. In parallel, 2 nM biotinylated myostatin (in-house, as described in 1.1, biotinylated material) was pre-incubated with an antibody dilution series consisting of 10B3, 10B3C, and a negative control (IgG1 isotype control) for 2 hours at 37° C. The biotinylated myostatin:antibody reactions were then added to the ActRIIb coated plate for 1 hour at 37° C. Standard wash procedures were followed prior to addition of 1:1000 diluted streptavidin-HRP conjugate (Dako P0397) and a further 37° C. incubation for 1 hour. Plates were again washed and assayed at absorbance 490 nm following OPD substrate (Sigma) and acid stop solution treatment Inhibition curves and IC50 values for the inhibition of myostatin activity are shown in FIG. 5 and Table 8 respectively.

[18] = biological target: T1, mature myostatin (recombinant, dimeric); assay: BIAcore T100, antibody captured on protein A (C1 chip), myostatin analyte, all curves 1:1 model
Experimental: (§2) The affinity of 10B3 mouse parental and 10B3C for recombinant myostatin was assessed by BIAcore™ (surface plasmon resonance) analysis. Analysis was carried out by the use of a capture surface: anti-mouse IgG was coupled to a C1 chip by primary amine coupling for 10B3 mouse parental; and a protein A surface was created on a C1 chip by primary amine coupling for 10B3 chimera.
(§3) After capture, recombinant myostatin was passed over the surface at 64 nM, 16 nM, 4 nM, 1 nM, 0.25 nM and 0.0625 nM, with a buffer injection (i.e. 0 nM) used for double referencing. There was a regeneration step between each analyte injection, after which the new antibody capture event occurred before the next injection of myostatin. The data was analysed using both the 1:1 model and the Bivalent model inherent to the T100 machines analysis software (see Table 6). Both capture surfaces could be regenerated using 100 mM phosphoric acid, the work was carried out using HBS-EP as the running buffer and using 25° C. as the analysis temperature.

[19] = biological target: T1, mature myostatin (recombinant, dimeric); assay: BIAcore T100, antibody captured on protein A (C1 chip), myostatin analyte, all curves Bivalent model
Experimental: as §2, §3

[20] = biological target: T1, mature myostatin (recombinant, dimeric); assay: myostatin binding ELISA with purified antibody (made in CHOE1a), 10 ng/well recombinant myostatin coated, anti-human kappa HRP, A490 (Examples 4.1, 4.2)
Experimental: The myostatin binding ELISA was carried out approximately according to this protocol. A 96-well ELISA plate was coated at 4° C. overnight with 10 ng/well recombinant myostatin. This plate was then washed 3-times in wash buffer (PBS, 0.1% Tween-20). The wells were blocked for 1 hour at room temperature with block solution (PBS, 0.1% Tween-20+1% bovine serum albumin [BSA]), before washing 3-times in wash buffer. Antibodies were then titrated out to a suitable concentration range (approximately 100 to 0.001 μg/ml), added to the plate and incubated for 1 hour at room temperature. The plate was then washed 3-times in wash buffer. An anti-mouse IgG HRP-conjugated antibody (P0260 by Dako, this reagent was used according to the manufacturer's instructions) was used to detect binding of mouse antibodies, such as 10B3. An anti-human kappa light chain HRP-conjugated antibody (A7164 by Sigma Aldridge, this reagent was used according to the manufacturer's instructions) was used to detect binding of humanized or chimeric antibodies, such as 10B3 chimera or H0L0. The plate was then washed 3-times in wash buffer and developed with an OPD substrate (from Sigma, used according to the manufacturer's instructions) and read at 490 nm on a plate reader.

B1: H2L2 C91S (H2L2-C91S) (antibody, human IgG1, kappa, V domains shown)
VH: QVQLVQSGAEVKKPGASVKVSCKASGYSFTGYFMHWVRQAPGQGLEWMGNIYPYNGVSNYNQRFKARVTMTTDTSTSTAYMELRSLRSDDTAVYYCARRYYYGTGPADWYFDVWGQGTLVTVSS
VL: DIQMTQSPSSLSASVGDRVTITCKASQDINSYLSWFQQKPGKAPKSLIYRANRLVDGVPSKFSGSGSGTDYTLTISSLQPEDFATYYCLQSDEFPLTFGQGTKLEIKR
notes: Humanised, human IgG1/kappa; also called base molecule; base H2L2-C91S
Mean IC50, A204 in vitro activity assay [1]: 9.26 nM | Mean IC50, A204 in vitro activity assay (5 nM myostatin) [2]: 5.14 nM | Mean IC50, A204 in vitro activity assay [3]: 4.08 nM | Kd [4]: 16.6 nM | Kd [5]: 0.073 nM | koff [5]: 2.99e-05 s⁻¹ | kon [5]: 410000 M⁻¹ s⁻¹ | EC50 (read off the curve) [6]: ~1 nM

B2: CDRH3 variant F100G_S of H2L2-C91S (antibody, human IgG1, kappa, V domains shown)
VH: QVQLVQSGAEVKKPGASVKVSCKASGYSFTGYFMHWVRQAPGQGLEWMGNIYPYNGVSNYNQRFKARVTMTTDTSTSTAYMELRSLRSDDTAVYYCARRYYYGTGPADWYSDVWGQGTLVTVSS
VL: DIQMTQSPSSLSASVGDRVTITCKASQDINSYLSWFQQKPGKAPKSLIYRANRLVDGVPSKFSGSGSGTDYTLTISSLQPEDFATYYCLQSDEFPLTFGQGTKLEIKR
notes: tested only in the supernatant screen
binding result [7]: binds

B3: H2L2 N54Q (H2L2-N54Q) (antibody, human IgG1, kappa, V domains shown)
VH: QVQLVQSGAEVKKPGASVKVSCKASGYSFTGYFMHWVRQAPGQGLEWMGNIYPYQGVSNYNQRFKARVTMTTDTSTSTAYMELRSLRSDDTAVYYCARRYYYGTGPADWYFDVWGQGTLVTVSS
VL: DIQMTQSPSSLSASVGDRVTITCKASQDINSYLSWFQQKPGKAPKSLIYRANRLVDGVPSKFSGSGSGTDYTLTISSLQPEDFATYYCLQCDEFPLTFGQGTKLEIKR
Mean IC50, A204 in vitro activity assay [1]: 12 nM | fold loss in affinity against H2L2 [8]: ≥ 2 fold | Kd [4]: 28 nM | EC50 (read off the curve) [9]: ~1 nM

B4: 10B3 chimera (antibody, human IgG1, kappa, V domains shown)
VH: EVQLQQSGPELVKPGASVKISCKASGYSFTGYFMHWVKQSHGNILDWIGNIYPYNGVSNYNQRFKAKATLTVDKSSSTAYMELRSLTSEDSAVYYCARRYYYGTGPADWYFDVWGTGTLVTVSS
VL: DIKMTQSPSSMYASLRERVTITCKASQDINSYLSWFQQKPGKSPKTLIYRANRLVDGVPSRFSGSGSGQDYSLTISSLEYEDMGIYYCLQCDEFPLTFGAGTKLELKR
notes: Mouse variable regions on human IgG1/kappa wild type constant regions; also called HCLC; HcLc
Mean IC50, myostatin responsive reporter gene assay (A204 cells, luciferase) [10]: 6.2 nM | Mean IC50, A204 in vitro activity assay [11]: 5.1 nM | Mean IC50, A204 in vitro activity assay [1]: 8.45 nM | Mean IC50, A204 in vitro activity assay (5 nM myostatin) [2]: 3.53 nM | Mean IC50, A204 in vitro activity assay [12]: 3.57 nM | EC50 [13]: 0.049 µg/mL | Kd [4]: 4.44 nM | Kd [14]: 1.61 nM | koff [14]: 0.000967 s⁻¹ | kon [14]: 599000 M⁻¹ s⁻¹ | Kd [15]: 0.882 nM | koff [15]: 0.000218 s⁻¹ | kon [15]: 248000 M⁻¹ s⁻¹ | Kd [16]: 1.35 nM | koff [16]: 0.000559 s⁻¹ | kon [16]: 413000 M⁻¹ s⁻¹ | IC50 [17]: 0.138 µg/mL | Kd [18]: 0.088 nM | Kd [19]: 3.6 nM | EC50 (read off the curve) [20]: ~0.1 µg/mL
